Values joined by “and” are separate entries in the source; they are usually repeats but may differ in a detail not shown here. Equal values may be shown once. Numbered stars: 1 amine (or outer) side, 2 acyl side, 3 side chain; on linkers, the order of the positions; unused ones are H or OH. Bridge positions count the residues as written; N and C are the ends. Square brackets hold non-standard residues; d marks the D form. Side chains are listed from the residue outwards. Ends that are not written are not given here. * marks the point of attachment. γGlu = O=C(O)[C@H](CCC(=O)[*:2])N[*:1]; Palmitoyl = CCCCCCCCCCCCCCCC(=O)*; DMIA = not defined here; Aib = CC(C)(N)C(=O)O; βAla = NCCC(=O)O
Key:
Test in all cases: cell-based or functional assay
[1] = molecular target: T1, GLP-1 receptor (UniProt P43220 24-463, limits assumed)
[2] = molecular target: glucagon receptor (UniProt P47871 26-477, limits assumed)
glucagon receptor, sequence (P47871 26-477 limits assumed): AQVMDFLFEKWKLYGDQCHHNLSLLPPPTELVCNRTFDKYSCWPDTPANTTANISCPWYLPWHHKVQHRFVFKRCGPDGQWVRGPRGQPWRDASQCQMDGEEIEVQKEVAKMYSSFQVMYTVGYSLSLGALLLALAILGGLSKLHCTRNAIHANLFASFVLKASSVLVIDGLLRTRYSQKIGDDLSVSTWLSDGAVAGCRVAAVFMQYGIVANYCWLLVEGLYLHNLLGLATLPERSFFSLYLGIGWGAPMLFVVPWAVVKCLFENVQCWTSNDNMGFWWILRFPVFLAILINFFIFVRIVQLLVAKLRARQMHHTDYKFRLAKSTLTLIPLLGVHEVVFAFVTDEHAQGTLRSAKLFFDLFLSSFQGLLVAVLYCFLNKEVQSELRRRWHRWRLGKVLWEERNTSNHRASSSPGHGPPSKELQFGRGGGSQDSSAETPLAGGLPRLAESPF

[3] = molecular target: T1, GLP-1 receptor; remark: listed apart in the source

Binder	in vitro activity EC50 [1]	in vitro activity EC50 [2] [pM]	cAMP EC50 [3] [pM]
H[Aib]QGTFISDK([γGlu-Palmitoyl])SKYLDEQAAKEFIAWLMNT-NH2 (N-terminus assumed; SMILES CCCCCCCCCCCCCCCC(=O)N[C@@H](CCC(=O)NCCCC[C@H](NC(=O)[C@H](CC(=O)O)NC(=O)[C@H](CO)NC(=O)[C@@H](NC(=O)[C@H](Cc1ccccc1)NC(=O)[C@@H](NC(=O)CNC(=O)[C@H](CCC(N)=O)NC(=O)C(C)(C)NC(=O)[C@@H](N)Cc1c[nH]cn1)[C@@H](C)O)[C@@H](C)CC)C(=O)N[C@@H](CO)C(=O)N[C@@H](CCCCN)C(=O)N[C@@H](Cc1ccc(O)cc1)C(=O)N[C@@H](CC(C)C)C(=O)N[C@@H](CC(=O)O)C(=O)N[C@@H](CCC(=O)O)C(=O)N[C@@H](CCC(N)=O)C(=O)N[C@@H](C)C(=O)N[C@@H](C)C(=O)N[C@@H](CCCCN)C(=O)N[C@@H](CCC(=O)O)C(=O)N[C@@H](Cc1ccccc1)C(=O)N[C@H](C(=O)N[C@@H](C)C(=O)N[C@@H](Cc1c[nH]c2ccccc12)C(=O)N[C@@H](CC(C)C)C(=O)N[C@@H](CCSC)C(=O)N[C@@H](CC(N)=O)C(=O)N[C@H](C(N)=O)[C@@H](C)O)[C@@H](C)CC)C(=O)O) [Chi-2, AIB2, I7, Lys10 γE-C16 (SEQ ID NO: 649)]	24 pM and 44 pM	14	–
H[Aib]QGTFTSDK([γGlu-γGlu-Palmitoyl])SKYLD[Aib]RAAQDFVQWLMDT-NH2 (N-terminus assumed; SMILES CCCCCCCCCCCCCCCC(=O)N[C@@H](CCC(=O)N[C@@H](CCC(=O)NCCCC[C@H](NC(=O)[C@H](CC(=O)O)NC(=O)[C@H](CO)NC(=O)[C@@H](NC(=O)[C@H](Cc1ccccc1)NC(=O)[C@@H](NC(=O)CNC(=O)[C@H](CCC(N)=O)NC(=O)C(C)(C)NC(=O)[C@@H](N)Cc1c[nH]cn1)[C@@H](C)O)[C@@H](C)O)C(=O)N[C@@H](CO)C(=O)N[C@@H](CCCCN)C(=O)N[C@@H](Cc1ccc(O)cc1)C(=O)N[C@@H](CC(C)C)C(=O)N[C@@H](CC(=O)O)C(=O)NC(C)(C)C(=O)N[C@@H](CCCNC(=N)N)C(=O)N[C@@H](C)C(=O)N[C@@H](C)C(=O)N[C@@H](CCC(N)=O)C(=O)N[C@@H](CC(=O)O)C(=O)N[C@@H](Cc1ccccc1)C(=O)N[C@H](C(=O)N[C@@H](CCC(N)=O)C(=O)N[C@@H](Cc1c[nH]c2ccccc12)C(=O)N[C@@H](CC(C)C)C(=O)N[C@@H](CCSC)C(=O)N[C@@H](CC(=O)O)C(=O)N[C@H](C(N)=O)[C@@H](C)O)C(C)C)C(=O)O)C(=O)O) [AIB2, AIB16, A18, D28, Lys10 γE-γE-C16 (SEQ ID NO: 655)]	4 pM	3	–
H[Aib]QGTFTSDK([βAla-βAla-Palmitoyl])SKYLD[Aib]RRAQDFVQWLMNT-NH2 [Peptide 84 (Table 22, SEQ ID NO: 566)]	–	–	4
H[Aib]EGTFTSDK(Palmitoyl)SKYLDEQAAKEFIAWLMNT-NH2 (N-terminus assumed; SMILES CCCCCCCCCCCCCCCC(=O)NCCCC[C@H](NC(=O)[C@H](CC(=O)O)NC(=O)[C@H](CO)NC(=O)[C@@H](NC(=O)[C@H](Cc1ccccc1)NC(=O)[C@@H](NC(=O)CNC(=O)[C@H](CCC(=O)O)NC(=O)C(C)(C)NC(=O)[C@@H](N)Cc1c[nH]cn1)[C@@H](C)O)[C@@H](C)O)C(=O)N[C@@H](CO)C(=O)N[C@@H](CCCCN)C(=O)N[C@@H](Cc1ccc(O)cc1)C(=O)N[C@@H](CC(C)C)C(=O)N[C@@H](CC(=O)O)C(=O)N[C@@H](CCC(=O)O)C(=O)N[C@@H](CCC(N)=O)C(=O)N[C@@H](C)C(=O)N[C@@H](C)C(=O)N[C@@H](CCCCN)C(=O)N[C@@H](CCC(=O)O)C(=O)N[C@@H](Cc1ccccc1)C(=O)N[C@H](C(=O)N[C@@H](C)C(=O)N[C@@H](Cc1c[nH]c2ccccc12)C(=O)N[C@@H](CC(C)C)C(=O)N[C@@H](CCSC)C(=O)N[C@@H](CC(N)=O)C(=O)N[C@H](C(N)=O)[C@@H](C)O)[C@@H](C)CC) [Chi-2, AIB2, E3, Lys10-C16, no spacer (SEQ ID NO: 647)]	5 pM	46100	–
H[Aib]EGTFTSDK([γGlu-γGlu-Palmitoyl])SKYLDEQAAKEFIAWLMNT [Chi-2, AIB2, E3, Lys10 γE-γE-C16 (SEQ ID NO: 648)]	4 pM	2920	–
H[Aib]QGTFTSDK([γGlu-γGlu-Palmitoyl])SKYLDEQAAKEFIAWLMNT-NH2 (N-terminus assumed; SMILES CCCCCCCCCCCCCCCC(=O)N[C@@H](CCC(=O)N[C@@H](CCC(=O)NCCCC[C@H](NC(=O)[C@H](CC(=O)O)NC(=O)[C@H](CO)NC(=O)[C@@H](NC(=O)[C@H](Cc1ccccc1)NC(=O)[C@@H](NC(=O)CNC(=O)[C@H](CCC(N)=O)NC(=O)C(C)(C)NC(=O)[C@@H](N)Cc1c[nH]cn1)[C@@H](C)O)[C@@H](C)O)C(=O)N[C@@H](CO)C(=O)N[C@@H](CCCCN)C(=O)N[C@@H](Cc1ccc(O)cc1)C(=O)N[C@@H](CC(C)C)C(=O)N[C@@H](CC(=O)O)C(=O)N[C@@H](CCC(=O)O)C(=O)N[C@@H](CCC(N)=O)C(=O)N[C@@H](C)C(=O)N[C@@H](C)C(=O)N[C@@H](CCCCN)C(=O)N[C@@H](CCC(=O)O)C(=O)N[C@@H](Cc1ccccc1)C(=O)N[C@H](C(=O)N[C@@H](C)C(=O)N[C@@H](Cc1c[nH]c2ccccc12)C(=O)N[C@@H](CC(C)C)C(=O)N[C@@H](CCSC)C(=O)N[C@@H](CC(N)=O)C(=O)N[C@H](C(N)=O)[C@@H](C)O)[C@@H](C)CC)C(=O)O)C(=O)O) [Chi-2, AIB2, Lys10 γE-γE-C16 (SEQ ID NO: 646)]	1.8 pM	14	–
H[Aib]QGTFTSDK([γGlu-γGlu-Palmitoyl])SKYLD[Aib]RRAQDFVQWLMNT-NH2 [Peptide 83 (Table 22, SEQ ID NO: 565)]	–	–	43
H[dS]QGTFTSDK([γGlu-γGlu-Palmitoyl])SKYLDEQAAKEFIAWLMNT [Chi-2, d-Ser2, Lys10 γE-γE-C16 (SEQ ID NO: 644)]	3 pM	8	–
H[dS]QGTFTSDK([γGlu-Palmitoyl])SKYLDEQAAKEFIAWLMNT [Chi-2, d-Ser2, Lys10 γE-C16 (SEQ ID NO: 643)]	1.4 pM	11	–
[DMIA]SQGTFTSDK([γGlu-γGlu-Palmitoyl])SKYLDERRAKDFVQWLMNT (lactam 16-20; reading uncertain) [DMIA1, E16/K20 lactam, Lys10 γE-γE-C16 (SEQ ID NO: 652)]	4 pM	–	–
XSQGTFTSDYSKYLDERRAKDFVQWLMNK (DMIA at position 1; E16/K20 lactam; C16 fatty acyl on Lys29 via γ-Glu-γ-Glu spacer) [DMIA1, E16/K20 lactam, Lys29 γE-γE-C16 (SEQ ID NO: 654)]	70 pM	25	–
H[Aib]QGTFTSDK([γGlu-Palmitoyl])SKYLDEQAAKEFIAWLMNT-NH2 (N-terminus assumed; SMILES CCCCCCCCCCCCCCCC(=O)N[C@@H](CCC(=O)NCCCC[C@H](NC(=O)[C@H](CC(=O)O)NC(=O)[C@H](CO)NC(=O)[C@@H](NC(=O)[C@H](Cc1ccccc1)NC(=O)[C@@H](NC(=O)CNC(=O)[C@H](CCC(N)=O)NC(=O)C(C)(C)NC(=O)[C@@H](N)Cc1c[nH]cn1)[C@@H](C)O)[C@@H](C)O)C(=O)N[C@@H](CO)C(=O)N[C@@H](CCCCN)C(=O)N[C@@H](Cc1ccc(O)cc1)C(=O)N[C@@H](CC(C)C)C(=O)N[C@@H](CC(=O)O)C(=O)N[C@@H](CCC(=O)O)C(=O)N[C@@H](CCC(N)=O)C(=O)N[C@@H](C)C(=O)N[C@@H](C)C(=O)N[C@@H](CCCCN)C(=O)N[C@@H](CCC(=O)O)C(=O)N[C@@H](Cc1ccccc1)C(=O)N[C@H](C(=O)N[C@@H](C)C(=O)N[C@@H](Cc1c[nH]c2ccccc12)C(=O)N[C@@H](CC(C)C)C(=O)N[C@@H](CCSC)C(=O)N[C@@H](CC(N)=O)C(=O)N[C@H](C(N)=O)[C@@H](C)O)[C@@H](C)CC)C(=O)O) [Chi-2, AIB2, Lys10 γE-C16 (SEQ ID NO: 645)]	1.4 pM	25	–
H[Aib]QGTFTSDK([Ala-Ala-Palmitoyl])SKYLD[Aib]RRAQDFVQWLMNT-NH2 [Peptide 82 (Table 22, SEQ ID NO: 564)]	–	–	108
H[Aib]QGTFISDK([γGlu-γGlu-Palmitoyl])SKYLDEQAAKEFIAWLMNT-NH2 (N-terminus assumed; SMILES CCCCCCCCCCCCCCCC(=O)N[C@@H](CCC(=O)N[C@@H](CCC(=O)NCCCC[C@H](NC(=O)[C@H](CC(=O)O)NC(=O)[C@H](CO)NC(=O)[C@@H](NC(=O)[C@H](Cc1ccccc1)NC(=O)[C@@H](NC(=O)CNC(=O)[C@H](CCC(N)=O)NC(=O)C(C)(C)NC(=O)[C@@H](N)Cc1c[nH]cn1)[C@@H](C)O)[C@@H](C)CC)C(=O)N[C@@H](CO)C(=O)N[C@@H](CCCCN)C(=O)N[C@@H](Cc1ccc(O)cc1)C(=O)N[C@@H](CC(C)C)C(=O)N[C@@H](CC(=O)O)C(=O)N[C@@H](CCC(=O)O)C(=O)N[C@@H](CCC(N)=O)C(=O)N[C@@H](C)C(=O)N[C@@H](C)C(=O)N[C@@H](CCCCN)C(=O)N[C@@H](CCC(=O)O)C(=O)N[C@@H](Cc1ccccc1)C(=O)N[C@H](C(=O)N[C@@H](C)C(=O)N[C@@H](Cc1c[nH]c2ccccc12)C(=O)N[C@@H](CC(C)C)C(=O)N[C@@H](CCSC)C(=O)N[C@@H](CC(N)=O)C(=O)N[C@H](C(N)=O)[C@@H](C)O)[C@@H](C)CC)C(=O)O)C(=O)O) [Chi-2, AIB2, I7, Lys10 γE-γE-C16 (SEQ ID NO: 650)]	10 pM	7	–
XSQGTFTSDYSKYLDERRAKDFVQWLMNK (DMIA at position 1; E16/K20 lactam; C16 fatty acyl on Lys29 via γ-Glu spacer) [DMIA1, E16/K20 lactam, Lys29 γE-C16 (SEQ ID NO: 653)]	75 pM	107	–
H[Aib]QGTFTSDK([Leu-Leu-Palmitoyl])SKYLD[Aib]RRAQDFVQWLMNT-NH2 [Peptide 86 (Table 22, SEQ ID NO: 568)]	–	–	6
[DMIA]SQGTFTSDK([γGlu-Palmitoyl])SKYLDERRAKDFVQWLMNT (lactam 16-20; reading uncertain) [DMIA1, E16/K20 lactam, Lys10 γE-C16 (SEQ ID NO: 651)]	6 pM	19	–
H[Aib]QGTFTSDK([γGlu-Palmitoyl])SKYLD[Aib]RAAQDFVQWLMDT-NH2 [AIB2, AIB16, A18, D28, Lys10 γE-C16 (SEQ ID NO: 656)]	4 pM	6	–

Source: patent US20130090286A1 (published 2013)
